Test results: paper PMC11560701
Read-outs that look alike come from different tables or passages of the source.

What was measured:
[1] = target: H2A.Z/H3K9cme3 mono-nucleosome (208-bp 601 Widom DNA) (mouse | Xenopus laevis) (UniProt P0C0S6); experiment: AUC
[2] = target: H2A.Z/H3K9cme3 mono-nucleosome (208-bp 601 Widom DNA) (mouse | Xenopus laevis) (UniProt P0C0S6); experiment: AUC; remark: listed apart in the source

Chain of human HP1α (heterochromatin protein 1 alpha), full length (P45973 whole entry): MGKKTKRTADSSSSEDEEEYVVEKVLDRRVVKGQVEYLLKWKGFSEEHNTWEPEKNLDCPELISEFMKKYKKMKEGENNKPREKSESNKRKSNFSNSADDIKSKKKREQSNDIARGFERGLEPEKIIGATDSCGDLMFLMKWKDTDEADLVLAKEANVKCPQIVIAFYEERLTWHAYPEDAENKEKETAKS

human HP1α (heterochromatin protein 1 alpha), full length (from UniProt P45973 1-191) (natural protein)
Kd [1]: 1000 nM
stoichiometry N (HP1α dimers per nucleosome) [1]: 2
Kd [2]: 850 µM
